This note sets out measurements from patent US20240262894A1 (INSTITUTE OF MICROBIOLOGY CHINESE ACADEMY OF SCIENCES, published 2024).

Assay [1] deals with T1, post-fusion F protein (FΔFP) of RSV A2 strain (respiratory syncytial virus A2 strain, UniProt P03420 26-513).
T1 construct: also called RSV-FΔFP; RSV post-fusion F protein
The assay is described as follows: SPR (Biacore), F protein immobilised on CM5 chip, Fab as analyte. On the technique in general: In SPR one partner is held on a chip, and binding of the other changes the refractive index at the surface.

Assay [2] addresses T2, pre-fusion F protein DS-Cav1 of RSV A2 strain (respiratory syncytial virus A2 strain).
T2 construct: Purified from 293T cells; also called RSV-F (DS-Cav1); RSV pre-fusion F protein
The description is as above.

The target in assay [3] is F protein of RSV A-type A2 strain (on virus) (respiratory syncytial virus A-type A2 …, UniProt P03420 26-574). The assay is described as follows: cell-based or functional assay.
The target of assay [4] is F protein of RSV A-type Long strain (on virus) (respiratory syncytial virus A-type Long …, UniProt P12568 26-574). The assay is described as follows: cell-based or functional assay.
Assay [5] has as its target T3, F protein of RSV A-type A2 strain (on virus) (respiratory syncytial virus A-type A2 …, UniProt P03420 26-574). The assay is described as follows: cell-based or functional assay. The source holds these as a separate data set.
Assay [6] addresses T4, F protein of RSV B-type clinical isolates (on virus) (respiratory syncytial virus B-type …). The assay is described as follows: cell-based or functional assay.
Assay [7] addresses T4, F protein of RSV B-type clinical …. The assay is described as follows: cell-based or functional assay. This is another data set of the same source.
The target in assay [8] is T3, F protein of RSV A-type A2 strain (on …). The assay is described as follows: cell-based or functional assay. This is another data set of the same source.
For assay [9], the target named is F protein of RSV A-type Long strain (on virus) (respiratory syncytial virus A-type Long …, UniProt P12568 26-574). The assay is described as follows: cell-based or functional assay. This is another data set of the same source.

B1: RV7 Fab (Fab, V domains shown)
VH: QVQLQESGPGLVKPSETLSLTCTVSGGSISSYYLSWIRQPPGKGLEWIGYIYHTGSTNYNPSLKSRVTISVHSSKNQFSLKLTSVTAADTAVYYCARHMRIVTTIDYWGQGTLVTVSS
VL: DIVMTQSPSSLSASVGDRVTLTCRASQGISSYLAWYQQKPGKVPKLLIYAASTLQSGVPSRFSGSGSGTDFTLTISSLQPEDVATYYCQKYNSAPWTFGQGTKVEIKR
notes: Fab made by enzyme digestion (immobilised enzyme beads, Thermo 20341) of the human IgG1/kappa antibody; also called Fab of RV7 antibody; not shown: limits not st
Regarding B1, the binding result in assay [1] and in assay [2] was “no binding” each time.

B2: Palivizumab (antibody, V domains shown)
VH: QVTLRESGPALVKPTQTLTLTCTFSGFSLSTSGMSVGWIRQPPGKALEWLADIWWDDKKDYNPSLKSRLTISKDTSKNQVVLKVTNMDPADTATYYCARSMITNWYFDVWGAGTTVTVSS
VL: DIQMTQSPSTLSASVGDRVTITCKCQLSVGYMHWYQQKPGKAPKLLIYDTSKLASGVPSRFSGSGSGTEFTLTISSLQPDDFATYYCFQGSGYPFTFGGGTKLEIK
As for B2, in assay [3], the “IC50 (ng/mL), neutralization of RSV A-type A2 strain on Hep2 cells, flow cytometry” value was 751 ng/mL. Moreover, the “IC50 (ng/mL), neutralization of RSV A-type Long strain on Hep2 cells, flow cytometry” value in assay [4] was 897 ng/mL.

B3: RV8 antibody (human IgG1) (antibody, V domains shown)
VH: QVQLVQSGGGVVQPGRSLRLSCAASGFTFSSYAMHWVRQAPGKGLEWMAVISYDGSNTYYADSVKGRFTISRDNSKNTLYLQMNSLRAEDTAMFYCARDYCSRGTCYHDYWGQGTLVTVSS
VL: DIVLTQSPSSLSASVGDRVTITCRASQDIRNDLSWYQQKPGKAPKLLIYAASSLQSGVPSRFSGSGSGTDFTLTISSLQPEDFATYSCLQDYNYPQTFGQGTKVEIKR
Consider B3, for which, in [5], the “IC50 (ng/mL), neutralization of RSV A-type A2 strain on Hep2 cells, flow cytometry” value stood at 540 ng/mL. In [6], the “IC50 (ng/mL), neutralization of RSV B-type clinical isolates on Hep2 cells, flow cytometry” value is 183 ng/mL. The “neutralization activity against RSV B-type clinical isolates relative to palivizumab” value in assay [7] was 7.7 times.

B4: RV8 Fab (Fab, V domains shown)
VH: B3 VH
VL: B3 VL
notes: Fab made by enzyme digestion of the human IgG1/kappa antibody; also called Fab of RV8 antibody; not shown: limits not st
Usually Kd stands for the constant that tells how readily two partners part at equilibrium. As to B4, the values for the Kd in assay [1] and in assay [2] were 17.5 nM and 25.6 nM, respectively.

B5: RV10 Fab (Fab, V domains shown)
VH: QVQLVQSGAEVKKPGASVKVSCKASGYTFTTYDFHWVRQAPGQGLEWIGWLNPDNGNTKHSQKFQGRVTFTRDTSASTAFMELSSLRSEDTAVYYCTRAPWWWYFDYWGQGTLVTVSS
VL: NFMLTQPHSVSESPGKTVTISCTRSSGSIASNYVQWCQQRPGSSPTTVIYEDNQRPSGVPDRFSGSIDSSSNSASLTISGLRTEDEADYYCQSYDTSNAVFGGGTKLTVLG
notes: Fab made by enzyme digestion of the human IgG1/lambda antibody; also called Fab of RV10 antibody; not shown: limits not st
Take B5: the Kd in assay [1] amounted to 7.1 nM; in assay [2], 10.1 nM.

B6: RV11 antibody (human IgG1) (antibody, V domains shown)
VH: QVQLVQSGGGVVQPGRSLRLSCAASGFSFTNYGMHWVRQAPGKGLEWVAVISYDDGSDKYYADSVKGRFTISRDNSKNTLYLQMNSLRAEDTAVYYCVRDPTGDYGDFPEQDGYYYYYGMDVWGQGTTVTVSS
VL: QAVLTQPPSASGTPGQRVTISCSGSSLNIGSNYVYWYQQLPGTAPKFLIYKNNQRPSGVPDRFSGSKSGTSASLAISGLRSEDEADYYCAAWDDSLSGVVFGGGTKLTVLG
With B6, the “IC50 (ng/mL), neutralization of RSV A-type A2 strain on Hep2 cells, flow cytometry” value in assay [5] was 42.3 ng/mL. Moreover, the “IC50 (ng/mL), neutralization of RSV B-type clinical isolates on Hep2 cells, flow cytometry” value in assay [6] was found to be 31.4 ng/mL. In addition, in [8], the “neutralization activity against RSV A2 relative to palivizumab” value was ~18 times. Besides, in assay [9], the “neutralization activity against RSV Long relative to palivizumab” value is ~16 times. The “neutralization activity against RSV B-type clinical isolates relative to palivizumab” value in assay [7] is ~45 times.
